What was measured:
HLA-A*03:01 = assay: IEDB peptide-MHC binding, purified MHC/direct/fluorescence; filed as Kd, often an IC50 or EC50 that approximates it; ≥ and ≤ were set here for values at or beyond the usual limits of such assays
HLA-A*29:02 = assay: as above; details: source organism: Brucella suis 1330
HLA-A*66:01 [1] = assay: as above; details: source organism: Brucella suis 1330
HLA-A*68:02 = assay: as above
HLA-B*15:01 [2] = assay: as above
HLA-B*18:01 = assay: as above
HLA-B*27:03 = assay: as above; details: source organism: Brucella suis 1330
HLA-B*46:01 = assay: as above; details: source organism: Brucella suis 1330
HLA-B*51:01 = assay: as above; details: source organism: Brucella suis 1330
HLA-B*57:01 = assay: as above
HLA-A*01:01 [3] = assay: IEDB peptide-MHC binding, purified MHC/competitive/fluorescence; filed as Kd, often an IC50 or EC50 that approximates it; ≥ and ≤ were set here for values at or beyond the usual limits of such assays
HLA-A*11:01 [4] = assay: as above
HLA-A*23:01 = assay: as above
HLA-A*24:03 = assay: as above; details: source organism: Brucella canis ATCC 23365
HLA-A*30:01 = assay: as above
HLA-A*30:02 [5] = assay: as above
HLA-A*68:23 = assay: as above; details: source organism: Brucella canis ATCC 23365
HLA-B*07:02 [6] = assay: as above
HLA-B*08:01 = assay: as above
HLA-B*14:02 = assay: as above
HLA-B*15:42 = assay: as above; details: source organism: Brucella canis ATCC 23365
HLA-B*39:01 [7] = assay: as above; details: source organism: Brucella canis ATCC 23365
HLA-B*40:01 = assay: as above
HLA-B*44:02 = assay: as above
HLA-B*45:06 = assay: as above; details: source organism: Brucella canis ATCC 23365
HLA-B*53:01 = assay: as above
HLA-B*58:01 [8] = assay: as above
HLA-B*83:01 = assay: as above; details: source organism: Brucella canis ATCC 23365
HLA-A*80:01 = assay: IEDB peptide-MHC binding, purified MHC/direct/fluorescence; filed as Kd, often an IC50 or EC50 that approximates it; ≥ and ≤ were set here for values at or beyond the usual limits of such assays; details: source organism: Dengue virus 1 Singapore/S275/1990
HLA-A*30:02 [9] = assay: IEDB peptide-MHC binding, purified MHC/competitive/radioactivity; filed as Kd, often an IC50 or EC50 that approximates it; ≥ and ≤ were set here for values at or beyond the usual limits of such assays; details: source organism: Dengue virus 1 Brazil/97-11/1997
HLA-B*58:01 [10] = assay: as above; details: source organism: Dengue virus 1 Brazil/97-11/1997
HLA-A*01:01 [11] = assay: IEDB peptide-MHC binding, purified MHC/direct/fluorescence; filed as Kd, often an IC50 or EC50 that approximates it; ≥ and ≤ were set here for values at or beyond the usual limits of such assays; details: source organism: Bacillus anthracis
HLA-A*02:01 = assay: as above; details: source organism: Bacillus anthracis
HLA-A*11:01 [12] = assay: as above; details: source organism: Bacillus anthracis
HLA-A*26:02 = assay: as above; details: source organism: Bacillus cereus H3081.97
HLA-A*26:03 = assay: as above; details: source organism: Bacillus cereus H3081.97
HLA-A*31:01 = assay: as above; details: source organism: Bacillus anthracis
HLA-A*69:01 = assay: as above; details: source organism: Bacillus anthracis
HLA-B*07:02 [13] = assay: as above; details: source organism: Bacillus anthracis
HLA-B*15:17 = assay: as above; details: source organism: Bacillus anthracis
HLA-B*27:05 [14] = assay: as above; details: source organism: Bacillus anthracis
HLA-B*39:01 [15] = assay: as above; details: source organism: Bacillus cereus H3081.97
HLA-B*48:01 = assay: as above; details: source organism: Bacillus anthracis
HLA-B*58:01 [16] = assay: as above; details: source organism: Bacillus anthracis
HLA-B*73:01 = assay: as above; details: source organism: Bacillus anthracis
HLA-A*66:01 [17] = assay: IEDB peptide-MHC binding, purified MHC/competitive/fluorescence; filed as Kd, often an IC50 or EC50 that approximates it; ≥ and ≤ were set here for values at or beyond the usual limits of such assays; details: source organism: Escherichia coli 536
HLA-B*15:01 [18] = assay: as above; details: source organism: Escherichia coli 536
HLA-B*27:05 [19] = assay: as above; details: source organism: Escherichia coli 536
[20] = source organism: Brucella suis 1330
[21] = source organism: Brucella canis ATCC 23365
[22] = source organism: Bacillus anthracis
[23] = source organism: Escherichia coli 536

## ETVWPFFYA
HLA-A*03:01; [20]
  Kd: ≥ 20 µM
HLA-A*29:02
  Kd: ≥ 20 µM
HLA-A*66:01 [1]
  Kd: 0.101 µM
HLA-A*68:02; [20]
  Kd: ≤ 0.001 µM
HLA-B*15:01 [2]; [20]
  Kd: ≥ 20 µM
HLA-B*18:01; [20]
  Kd: ≥ 20 µM
HLA-B*27:03
  Kd: ≥ 20 µM
HLA-B*46:01
  Kd: ≥ 20 µM
HLA-B*51:01
  Kd: ≥ 20 µM
HLA-B*57:01; [20]
  Kd: ≥ 20 µM
HLA-A*01:01 [3]; [21]
  Kd: ≥ 5 µM
HLA-A*11:01 [4]; [21]
  Kd: ≥ 5 µM
HLA-A*23:01; [21]
  Kd: ≥ 5 µM
HLA-A*24:03
  Kd: ≥ 5 µM
HLA-A*30:01; [21]
  Kd: ≥ 5 µM
HLA-A*30:02 [5]; [21]
  Kd: ≥ 5 µM
HLA-A*68:23
  Kd: 0.0013 µM
HLA-B*07:02 [6]; [21]
  Kd: ≥ 5 µM
HLA-B*08:01; [21]
  Kd: ≥ 5 µM
HLA-B*14:02; [21]
  Kd: ≥ 5 µM
HLA-B*15:42
  Kd: ≥ 5 µM
HLA-B*39:01 [7]
  Kd: ≥ 5 µM
HLA-B*40:01; [21]
  Kd: ≥ 5 µM
HLA-B*44:02; [21]
  Kd: ≥ 5 µM
HLA-B*45:06
  Kd: ≥ 5 µM
HLA-B*53:01; [21]
  Kd: ≥ 5 µM
HLA-B*58:01 [8]; [21]
  Kd: ≥ 5 µM
HLA-B*83:01
  Kd: ≥ 5 µM

## KSAAIDGEY
HLA-A*80:01
  Kd: 0.0441 µM
HLA-A*30:02 [9]
  Kd: 0.703 µM
HLA-B*58:01 [10]
  Kd: 0.00658 µM

## PRFGSCYFL
HLA-A*01:01 [11]
  Kd: ≥ 20 µM
HLA-A*02:01
  Kd: ≥ 20 µM
HLA-A*03:01; [22]
  Kd: ≥ 20 µM
HLA-A*11:01 [12]
  Kd: ≥ 20 µM
HLA-A*26:02
  Kd: ≥ 20 µM
HLA-A*26:03
  Kd: ≥ 20 µM
HLA-A*31:01
  Kd: ≥ 20 µM
HLA-A*68:02; [22]
  Kd: ≥ 20 µM
HLA-A*69:01
  Kd: ≥ 20 µM
HLA-B*07:02 [13]
  Kd: 2.72 µM
HLA-B*15:01 [2]; [22]
  Kd: ≥ 20 µM
HLA-B*15:17
  Kd: ≥ 20 µM
HLA-B*18:01; [22]
  Kd: ≥ 20 µM
HLA-B*27:05 [14]
  Kd: ≥ 20 µM
HLA-B*39:01 [15]
  Kd: ≥ 20 µM
HLA-B*48:01
  Kd: ≥ 20 µM
HLA-B*57:01; [22]
  Kd: ≥ 20 µM
HLA-B*58:01 [16]
  Kd: ≥ 20 µM
HLA-B*73:01
  Kd: ≥ 20 µM

## YQAENSTAE
HLA-A*01:01 [3]; [23]
  Kd: ≥ 5 µM
HLA-A*11:01 [4]; [23]
  Kd: ≥ 5 µM
HLA-A*23:01; [23]
  Kd: ≥ 5 µM
HLA-A*30:01; [23]
  Kd: ≥ 5 µM
HLA-A*30:02 [5]; [23]
  Kd: ≥ 5 µM
HLA-A*66:01 [17]
  Kd: ≥ 5 µM
HLA-B*07:02 [6]; [23]
  Kd: ≥ 5 µM
HLA-B*08:01; [23]
  Kd: ≥ 5 µM
HLA-B*14:02; [23]
  Kd: ≥ 5 µM
HLA-B*15:01 [18]
  Kd: ≥ 5 µM
HLA-B*27:05 [19]
  Kd: ≥ 5 µM
HLA-B*40:01; [23]
  Kd: ≥ 5 µM
HLA-B*44:02; [23]
  Kd: ≥ 5 µM
HLA-B*53:01; [23]
  Kd: ≥ 5 µM
HLA-B*58:01 [8]; [23]
  Kd: ≥ 5 µM

From the Immune Epitope Database (IEDB)
